Test results published in patent publication US20110263827A1 (AbbVie / Abbott, published 2011).
“And” between values parts separate entries of the source, which are not always exact repeats. Equal values may be shown once. Values belong to the binder of their own block, whether it stands above or below them.

Tests used:
Assay in all cases: direct bind ELISA, ref Ab
HGF = target: T1, HGF (UniProt P14210 32-728, limits assumed, biotinylated)
T1 construct: ELISA antigen
Experimental: (§1) Enzyme Linked Immunosorbent Assays to screen for antibodies that bind a desired target antigen are performed as follows. […] Plates are washed once with PBS containing 0.05% Tween-20. […] Plates are washed once after blocking with PBS containing 0.05% Tween-20.
(§2) Fifty microliters per well of, e.g., mouse sera, hybridoma supernatants, or antibody or DVD-Ig preparations diluted in PBS containing 0.1% Bovine Serum Albumin (BSA) (Sigma, St. Louis, Mo.) is added to the ELISA plate prepared as described above and incubated for 1 hour at room temperature. Wells are washed three times with PBS containing 0.05% Tween-20. […] Plates are washed 3 times with PBS containing 0.05% Tween-20. […] Plates are washed 3 times with PBS containing 0.05% Tween-20. Fifty microliters of TMB solution (Sigma #T0440, St. Louis, Mo.) is added to each well and incubated for 10 minutes at room temperature. The reaction is stopped by addition of 1N sulphuric acid. Plates are read spectrophotmetrically at a wavelength of 450 nm.

PLGF = target: T2, PLGF (UniProt P49763-2 21-149, limits assumed, biotinylated)
T2 construct: ELISA antigen; also called P1GF
T2 sequence (looked up): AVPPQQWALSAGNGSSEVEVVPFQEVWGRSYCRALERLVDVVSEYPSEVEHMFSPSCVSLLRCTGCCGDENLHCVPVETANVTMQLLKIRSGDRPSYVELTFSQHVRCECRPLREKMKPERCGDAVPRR
Experimental: as §1, §2

VEGF = target: T3, VEGF (UniProt P15692-4 27-191, limits assumed, biotinylated)
T3 construct: ELISA antigen
Experimental: as §1, §2

DLL-4 = target: T4, DLL-4 (UniProt Q9NR61 27-524, limits assumed, biotinylated)
T4 construct: ELISA antigen
Experimental: as §1, §2

EC50 (HGF): 0.15 nM and 0.19 nM
B1: AB012 (antibody, V domains shown)
VH: QVQLVESGGGLVKPGGSLRLSCAASGFTFSDYYMSWIRQAPGKGLEWVSYISSSGSTIYYADSVKGRFTISRDNAKNSLYLQMNSLRAEDTAVYYCARDEYNSGWYVLFDYWGQGTLVTVSS
VL: DIQMTQSPSSVSASVGDRVTITCRASQGISSWLAWYQQKPGKAPNLLIYEASSLQSGVPSRFGGSGSGTDFTLTISSLQPEDFATYYCQQANGFPWTFGQGTKVEIKR
notes: parent antibody; also called HGF

EC50 (PLGF): 0.21 nM and 0.25 nM
B2: AB047 (antibody, V domains shown)
VH: QVQLQQSGAELVKPGASVKISCKASGYTFTDYYINWVKLAPGQGLEWIGWIYPGSGNTKYNEKFKGKATLTIDTSSSTAYMQLSSLTSEDTAVYFCVRDSPFFDYWGQGTLLTVSS
VL: DIVLTQSPDSLAVSLGERVTMNCKSSQSLLNSGMRKSFLAWYQQKPGQSPKLLIYWASTRESGVPDRFTGSGSGTDFTLTISSVQAEDVAVYYCKQSYHLFTFGSGTKLEIKR
notes: parent antibody; also called PLGF; P1GF (ThromboGenix)

EC50 (VEGF): 1.68 nM and 1.57 nM
B3: AB071 (antibody, V domains shown)
VH: EVQLVESGGGLVQPGGSLRLSCAASGFTINASWIHWVRQAPGKGLEWVGAIYPYSGYTNYADSVKGRFTISADTSKNTAYLQMNSLRAEDTAVYYCARWGHSTSPWAMDYWGQGTLVTVSS
VL: DIQMTQSPSSLSASVGDRVTITCRASQVIRRSLAWYQQKPGKAPKLLIYAASNLASGVPSRFSGSGSGTDFTLTISSLQPEDFATYYCQQSNTSPLTFGQGTKVEIKR
notes: parent antibody

EC50 (DLL-4): 0.45 nM and 0.4 nM
B4: AB015 (antibody, V domains shown)
VH: EVQLVESGGGLVQPGGSLRLSCAASGFTFTDNWISWVRQAPGKGLEWVGYISPNSGFTYYADSVKGRFTISADTSKNTAYLQMNSLRAEDTAVYYCARDNFGGYFDYWGQGTLVTVSS
VL: DIQMTQSPSSLSASVGDRVTITCRASQDVSTAVAWYQQKPGKAPKLLIYSASFLYSGVPSRFSGSGSGTDFTLTISSLQPEDFATTYYCQQSYTGTVTFGQGTKVEIKR
notes: parent antibody; also called DLL-4
